In patent publication US20060246077 (published 2006):

Target: MUC18-V5-His (extracellular domain) (human, UniProt P43121)
Assay: SPR, average

MUC18-V5-His (extracellular domain), sequence (P43121 1-559): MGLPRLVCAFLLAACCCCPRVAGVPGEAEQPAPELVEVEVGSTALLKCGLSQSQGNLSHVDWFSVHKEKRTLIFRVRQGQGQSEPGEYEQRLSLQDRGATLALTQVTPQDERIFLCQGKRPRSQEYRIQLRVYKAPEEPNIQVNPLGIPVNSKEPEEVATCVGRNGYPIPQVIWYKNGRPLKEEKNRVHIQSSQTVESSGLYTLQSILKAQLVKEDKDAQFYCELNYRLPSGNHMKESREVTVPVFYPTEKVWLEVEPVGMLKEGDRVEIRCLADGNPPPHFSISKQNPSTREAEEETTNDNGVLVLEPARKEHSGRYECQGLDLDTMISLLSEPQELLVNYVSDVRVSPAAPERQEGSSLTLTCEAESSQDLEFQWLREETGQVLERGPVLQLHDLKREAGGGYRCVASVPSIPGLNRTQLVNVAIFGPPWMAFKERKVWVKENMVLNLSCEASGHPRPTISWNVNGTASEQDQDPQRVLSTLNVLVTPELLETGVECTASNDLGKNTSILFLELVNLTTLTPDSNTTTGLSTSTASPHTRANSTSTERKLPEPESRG

B1: c3.19.1 (antibody, V domains shown)
VH: QVQLQESGPGLVKPSETLSLTCTVSGGSISSYYWSWIRQPPGKGLEWIGYIYYTWTSNYNPSLKSRVTISVDTSKNQFSLRLSSVTAADTAVYYCARDQGQWLLPDAFDIWGQGTMVTVSS
VL: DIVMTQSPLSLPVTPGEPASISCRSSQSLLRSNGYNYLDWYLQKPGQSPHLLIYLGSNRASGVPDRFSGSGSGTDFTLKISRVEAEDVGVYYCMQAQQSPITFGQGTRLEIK
Kd: 0.61 nM
